Tests used:
[1] = tested on: Vascular endothelial cells (HUVEC); assay: BrdU proliferation assay, vascular endothelial cells; format: cell-based, human; conditions: 2 ug/ml Ang2 with 10 ug/ml antibody; 3 days
Protocol: The measurement assay of the proliferation of vascular and lymphatic endothelial cells was conducted using a BrdU assay kit (Roche) Cell. Vascular endothelial cells of P3˜P8 (HUVEC, ATCC) or lymphatic endothelial cells (Lonza) were placed in a collagen-coated 96-well plate (BD Bioscience) at 3000˜5000 cells/well and cultured in EGM-2 media (Lonza) for 16˜24 hours. A mixture of 2 ug/ml of Ang2 (R&D systems) and 10 ug/ml of antibody 10D6 in 2% EBM media was added to the 96-well plate washed with PBS, which was then cultured for 3 days.
For efficiency comparison, an anti-Ang2 antibody (MEDI: Medlmmune Co.) was used. For a BrdU assay, 10 ul of BrdU solution diluted at 1:1,000 was added to each well of the plate to label the cells. The cells were cultured for 1 hour and after the removal of the culture solution, 100 ul of Fixation/Denaturation solution (Roche) was added to each well and then, removed after 30-min wait. An anti-BrdU antibody (Roche) conjugated with peroxidase was diluted in a dilution buffer (Roche) at 1:100, added to each well to react for 1 hour and then, washed four times using a washing buffer (Roche). 100 ul of a TMB substrate was added thereto to react and then, absorption was measured at 450 nm using a Microplate reader (Perkin Elmer).

Ang2:Tie2 receptor = target: T1, Ang2:Tie2 receptor (Homo sapiens, UniProt O15123); assay: ELISA for formation of 10D6-Ang2-Tie2 complex; format: binding; conditions: Tie2-Fc coated; 0.25 ug/ml Ang2, 2 ug/ml antibody
T1 construct: purchased R&D systems (Tie2-Fc)
T1 sequence (O15123 19-496): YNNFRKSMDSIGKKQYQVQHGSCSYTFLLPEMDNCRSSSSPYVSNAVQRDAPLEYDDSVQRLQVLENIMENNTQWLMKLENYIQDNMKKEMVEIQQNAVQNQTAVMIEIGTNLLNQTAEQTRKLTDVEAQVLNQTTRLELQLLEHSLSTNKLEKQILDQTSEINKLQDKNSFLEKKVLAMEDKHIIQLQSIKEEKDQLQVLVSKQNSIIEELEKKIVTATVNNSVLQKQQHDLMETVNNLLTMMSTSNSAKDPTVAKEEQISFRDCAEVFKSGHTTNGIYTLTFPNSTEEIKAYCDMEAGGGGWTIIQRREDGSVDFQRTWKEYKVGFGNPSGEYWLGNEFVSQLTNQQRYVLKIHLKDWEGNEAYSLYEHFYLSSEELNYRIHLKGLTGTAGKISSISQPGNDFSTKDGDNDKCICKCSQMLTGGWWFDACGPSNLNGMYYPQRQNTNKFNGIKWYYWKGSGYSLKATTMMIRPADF
T1 sequence (Q02763 23-745 partner limits assumed): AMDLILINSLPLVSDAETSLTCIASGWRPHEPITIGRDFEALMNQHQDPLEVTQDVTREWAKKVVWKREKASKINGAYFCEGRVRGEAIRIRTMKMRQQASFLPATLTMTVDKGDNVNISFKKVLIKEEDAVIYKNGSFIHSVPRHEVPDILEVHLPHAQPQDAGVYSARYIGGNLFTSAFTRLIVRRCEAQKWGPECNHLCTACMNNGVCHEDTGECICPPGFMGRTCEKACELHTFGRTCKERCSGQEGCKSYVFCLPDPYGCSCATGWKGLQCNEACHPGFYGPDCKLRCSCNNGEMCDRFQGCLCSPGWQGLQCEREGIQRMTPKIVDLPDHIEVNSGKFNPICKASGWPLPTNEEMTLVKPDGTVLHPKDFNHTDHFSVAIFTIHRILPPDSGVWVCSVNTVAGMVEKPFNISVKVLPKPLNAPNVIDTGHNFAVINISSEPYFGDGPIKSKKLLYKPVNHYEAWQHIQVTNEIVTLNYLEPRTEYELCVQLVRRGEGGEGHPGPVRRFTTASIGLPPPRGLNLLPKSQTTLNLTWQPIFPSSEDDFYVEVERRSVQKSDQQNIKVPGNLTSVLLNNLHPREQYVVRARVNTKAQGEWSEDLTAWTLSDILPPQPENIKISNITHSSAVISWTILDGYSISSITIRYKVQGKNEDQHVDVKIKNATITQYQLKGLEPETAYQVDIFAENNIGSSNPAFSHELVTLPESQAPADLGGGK
Protocol: A 96-well MaxiSorp™ flat-bottom plate (Nunc) was coated with 4 ug/ml of Tie2-Fc (R&D systems) or BSA (Sigma). Then, the plate was washed five times with 0.05% (v/v) Tween-20-containing PBS (Phosphate Buffer Saline) and blocked with 1% (v/v) BSA (Bovine serum albumin; Sigma)-containing PBS at a room temperature for 2 hours. 0.25ug/ml of Ang2 and 2ug/ml of antibody 10D6 were added to each well of the plate, which was allowed to react at a room temperature for 2 hours and then washed five times with PBST. After that, an anti-mouse IgG antibody (Sigma) conjugated with HRP diluted in 1% (v/v) BSA-containing PBS at a ratio of 1:5,000 (v/v) was added in an amount of 100 ul to each well to react at a room temperature for 1 hour and then, the plate was washed five times with PBST. Lastly, 100 ul (microliter) of TMB substrate (Cell Signaling) was added to each well of the plate to induce color development for 3 min. and then, the reaction was ceased by the addition of 100 ul of Stop solution (Cell Signaling) and OD450 values were measured on a plate reader (Molecular Devices).

[2] = tested on: blood vessels of normal mice; assay: Vascular toxicity in normal mice; format: in vivo, mouse; conditions: C57BL/6, 5 mg/kg i.p. solely or with 20 ug Ang2, every three days, 6 times
Protocol: The vascular toxicity of antibody 10D6 was tested.
In particular, 5 mg/kg of antibody 10D6 was administered to normal 6-week old C57BL/6 mice (Jackson Laboratory) solely or combined with 20 ug of Ang2 via an intraperitoneal injection every three days a total of 6 times, and then, the weight of the mice was measured. After 20 days, various tissues including thyroid, parathyroid, and adrenal gland were removed from the mice, and frozen sections were obtained therefrom. The frozen sections were immunostained using hamster anti-CD31 antibody (1:200, Millipore), and the changes were observed. A group administered with 20 ug of Ang2 solely was used for comparison.

[3] = tested on: lymphatic endothelial cells; assay: Cell migration assay (xCelligence RTCA); format: cell-based; conditions: 2 ug/ml Ang2 with antibody; slope (1/hr)
Protocol: Also, the measurement of the mobility of lymphatic endothelial cells was conducted using xCelligence RTCA (Realtime cell analyzer; GE Healthcare). The RTCA is a non-invasive cell monitoring system by measuring impedance in real time to identify the change of a cell. To perform a cell migration assay, a CIM-plate16 (GE Healthcare) with a lower chamber and an upper chamber was used wherein microelectrodes for measuring impedance are arranged in the upper chamber and if the cells seeded into the chamber migrate through fine holes, the migration degree of the cells can be identified through their adhesion to the microelectrodes, and it was referred to as migration index. The lymphatic endothelial cells (P5-7; Lonza) which grew up in EGM-2 media (Lonza) were cultured in 1% FBS-added EBM media for 6 hours. 2 ug/ml of Ang2 and antibody 10D6 in 2% FBS-added EBM media were added to each well of the lower chamber of the CIM-plate 16, which was assembled with the upper chamber coated with fibronectin (Sigma). For efficiency comparison, an anti-Ang2 antibody (MedImmune Co.) was used. 30 ul of serum-free EBM media was each added to the upper chamber and then, for equilibration between the plate and media, while being placed in an incubator for 1 hour, the CIM-plate was installed on a device station in the incubator and then, background values were measured. […]

tumor blood vessels = assay: Lectin perfusion assay in LLC tumors; format: in vivo, mouse; conditions: 10 mg/kg i.p., five administrations, compared to Fc- or 4H10-treated group
Protocol: To see the functions of tumor blood vessels treated with antibody 10D6, perfusion level of the blood vessel was examined by Lectin perfusion assay. Referring to the method described in Example 14, LLC tumor cells were subcutaneously injected into mice. When the size of tumors reached 50˜100 mm^3, anti-Ang2 antibody 10D6 was injected at the concentration of 10 mg/kg via an intraperitoneal injection three times a week and the size of the tumors was measured. For comparison, the same experiment was performed to a control group treated with Fc of IgG1 and a comparative group treated with antibody 4H10 (refer to Example 3).
After administering the antibody five-times, the mice were injected with FITC-Lectin (Vector laboratory) via tail vein, and after 20 minutes, subjected to perfusion fixation. Tumor frozen sections were obtained and immunostained using hamster anti-CD31 antibody (1:200, Millipore). Images were obtained using LSM5 confocal microscope (Zeiss), and Lectin+ area/CD31+ area was quantified using ImageJ software (http://rsb.info.nih.gov/ij).

B1: 10D6: mouse anti-Ang2 monoclonal antibody from hybridoma KCLRF-BP-00295; heavy chain variable region SEQ ID NO: 7, light chain variable region SEQ ID NO: 9 (antibody, V domains shown)
VH: DVQLQESGPGLVKPSQSLSLTCTVTGYSITSDYAWNWIRQFPGNKLEWMGYINYSGNTDYNPSLKSRSSITRDTSKNQFFLQLNSVTTGDTATYYCARGNFEGAMDYWGQGTSVTVSS
VL: SIVMTQTPKFLLVSAGDRVTITCKASQSVSNDVAWYQQKPGQSPKLLIYYASNRYPGVPDRFTGSGYGTDFTFTISTVQAEDLAVYFCQQDYSSPWTFGGGTKLEIK
modifications: Synthetic (Heavy chain variable region of an anti-Ang2 antibody); Synthetic (Light chain variable region of anti-Ang2 antibody)
growth of vascular endothelial cells (BrdU) [1]: increased | formation of complex with Ang2 bound to Tie2 (Ang2:Tie2 receptor): formed a complex | weight of normal mice [2]: neither abnormal weight loss/gain | vascular toxicity (morphology of blood vessels, CD31 staining) ([2]; after 20 days): no vascular toxicity | migration of lymphatic endothelial cells [3]: increased | percentage of Lectin+ area in CD31+ area (tumor blood vessels): increased | perfusion function of tumor blood vessels (tumor blood vessels): enhanced
